Patent US11572572B2, “A138T mutation-containing plant EPSPS mutant, and encoding gene and application thereof” (GEVOTO LLC, priority 2017, dated 2023)

Experiments:
[1] = system: transgenic rice seedlings; assay: Glyphosate resistance of EPSPS mutants in transgenic rice sprayed with glyphosate (Example 8); assay type: in vivo, rice (Nipponbare)
[2] = system: double-knockout Escherichia coli (EDCE); assay: Growth of double-knockout E. coli (EDCE) transformed with Triticum aestivum EPSPS genes in glyphosate media (Example 7); assay type: cell-based
Protocol: An Escherichia coli strain transformed with the Triticum aestivum EPSPS mutant-encoding gene according to Example 4 was used as an experimental group.
An Escherichia coli strain transformed with a wild-type Triticum aestivum EPSPS-encoding gene (SEQ ID NO: 20, encoding wild-type Triticum aestivum EPSPS set forth in SEQ ID NO: 10 was used as Control Group 1.
The growth statuses of the transformed Escherichia coli strains in media containing different concentrations of glyphosate (0, 1, 20 mM) were detected to verify the glyphosate resistance of the Triticum aestivum EPSPS mutant-encoding gene and the encoded Triticum aestivum EPSPS mutant in Escherichia coli. Here, the Escherichia coli strain used was double-knockout Escherichia coli (Escherichia coli strain DH5a from which an EPSPS gene and a C-P Lyase gene were knocked out, named EDCE, which may be prepared by a method with reference to Chinese Patent Application. 2016103256926).

[3] = 1X dose glyphosate (1,060 g/ha), day 10 after spraying
[4] = 2X dose glyphosate (2,120 g/ha) on survivors of 1X, after another 10 days
[5] = 5X dose glyphosate (5,300 g/ha) on survivors of 2X, after additional 10 days
[6] = 20X dose glyphosate (21,200 g/ha) on survivors of 5X, after further 10 days

B1: T2: Triticum aestivum EPSPS mutant containing G113(96)A, P118(101)S, and A157(138)T (SEQ ID NO: 11), gene SEQ ID NO: 22; experimental group of Example 7 (protein)
chain: MATSVAAPAAPAGAEEVVLQPIREISGAVQLPGSKSLSNRILLLSALSEGTTVVDNLLNSEDVHYMLEALEALGLSVEADKVAKRAVVVGCGGRFPVEKDAKEEVKLFLGNAATAMRSLTAAVVAAGGNATYVLDGVPRMRERPIGDLVVGLQQLGTDVDCFLGTNCPPVRINGKGGLPGGKVKLSGSISSQYLSSLLMAAPLALEDVEIEIIDKLISVPYVEMTLKLMEHFGVTAEHSDSWDRFYIKGGQKYKSPGNAYVEGDASSASYFLAGAAITGGTVTVEGCGTTSLQGDVKFAEVLEMMGAKVTWTDTSVTVTGPPRQPFGRKHLKAVDVNMNKMPDVAMTLAVVALFADGPTAIRDVASWRVKETERMVAIRTELTKLGATVEEGPDYCIITPPEKLNITAIDTYDDHRMAMAFSLAACAEVPVTIRDPGCTRKTFPNYFDVLSTFVKN
modifications: Triticum aestivum EPSPS mutant with mutations G113(96)A, P118(101)S, and A157(138)T
[1]; [3]
  % ++&+++ (percentage of moderately and highly glyphosate resistant plants in total plants observed): 75.0%
  plant number with resistance + (low glyphosate resistant): 2
  plant number with resistance ++ (moderately glyphosate resistant): 4
  plant number with resistance +++ (highly glyphosate resistant): 20
[1]; [4]
  % ++&+++ (percentage of moderately and highly glyphosate resistant plants in total plants observed): 59.4%
  plant number with resistance + (low glyphosate resistant): 3
  plant number with resistance ++ (moderately glyphosate resistant): 2
  plant number with resistance +++ (highly glyphosate resistant): 17
  plant number with resistance − (non-glyphosate resistant, withered or dead): 10
[1]; [5]
  % ++&+++ (percentage of moderately and highly glyphosate resistant plants in total plants observed): 50.0%
  plant number with resistance + (low glyphosate resistant): 5
  plant number with resistance ++ (moderately glyphosate resistant): 14
  plant number with resistance +++ (highly glyphosate resistant): 2
  plant number with resistance − (non-glyphosate resistant, withered or dead): 11
[1]; [6]
  % ++&+++ (percentage of moderately and highly glyphosate resistant plants in total plants observed): 21.9%
  plant number with resistance + (low glyphosate resistant): 11
  plant number with resistance ++ (moderately glyphosate resistant): 7
  plant number with resistance +++ (highly glyphosate resistant): 0
  plant number with resistance − (non-glyphosate resistant, withered or dead): 14
[1]; each of 1×, 2×, 5×, and 20× glyphosate doses
  level of glyphosate resistance of transformed rice seedlings compared with the mutant lacking the A138T mutation (R4 for R5, T1 for T2) (in words): higher levels of glyphosate resistance
[2]
  glyphosate concentration of medium in which the E. coli strain was kept in a growing state: up to 20 mM
